{
  "source": "patent US20240026009A1",
  "about": "(Memorial Sloan Kettering, published 2024)",
  "binders": {"B1": {"name": "mAb 20F08 (antibody, V domains shown)", "VH": "EVQLVESGGGLVKPGGSLRLSCAASGFIFSNYNINWVRQAPGKGLEWVSCVSRSNYTYYTDSVKGRFTISRDNAKKSLYLQMNSLRAEDTAVYYCARDCGTYGVFDYWGQGTLVTVSS", "VL": "ETTVTQSPASLSMAIGEKVTIRCITSTDIDDDMNWYQQKPGEPPKLLISEGNILRPGVPSRFSSSGYGTDFVFAIENMLSEDVADYYCLQSDNLPYTFGGGTKLELK", "notes": "Hybridoma antibody from AlivaMab Mouse; Human HC (chimeric IgH with mouse CH2 and CH3) and murine LC; also called clone 20F08"}, "B2": {"name": "mAb 12H07 (antibody, V domains shown)", "VH": "B1 VH", "VL": "B1 VL", "notes": "Hybridoma antibody from AlivaMab Mouse; Human HC (chimeric IgH with mouse CH2 and CH3) and murine LC; also called 12H7; clone 12H07"}, "B3": {"name": "mAb 46H02 (antibody, V domains shown)", "VH": "QVQLVQSGAEVKKPGASVKVSCKASGYTFTGYSMHWVRQAPGQGLEWMGWINPHSGGTNSAQKFQGRVTMTRDTSIGTAYMELNRLRSDDTAVYYCVRDNPITGFDYWGQGTLVTVSS", "VL": "not shown", "notes": "Hybridoma antibody from AlivaMab Mouse; 46H02 has a fully human F(ab)2 (human light chain); also called clone 46H02"}, "B4": {"name": "mAb 39F02 (antibody, V domains shown)", "VH": "EVQLLESGGGLVQPGGSLRLSCAASGFTLSNYAMSWVRQAPGKGLEWVSAISGSGGGTYNADSVKGRFTISRDNSKNTLYLQMNSLRAEDTAVYYCAKEAWISYFDYWGQGTLVTVSS", "VL": "DIVMSQSPSSLAVSVGEKVTLSCKSSQSLLYGDDQKNYLAWYQQKPGQSPKLLLYWASTWESGVPDRFTGSGSGTDFTLTISSVKAADLAVYYCQQYYSYPWTFGGGTKLEIK", "notes": "Hybridoma antibody from AlivaMab Mouse; Human HC (chimeric IgH with mouse CH2 and CH3) and murine LC; also called clone 39F02"}, "B5": {"name": "mAb 38E05 (antibody, V domains shown)", "VH": "B4 VH", "VL": "B4 VL", "notes": "Hybridoma antibody from AlivaMab Mouse; Human HC (chimeric IgH with mouse CH2 and CH3) and murine LC; also called clone 38E05"}},
  "data": [
    {"target": "T1, human Galectin-3 (LGALS3) (human, UniProt P17931 2-250, limits assumed)", "T1 construct": "also called human Gal-3; Gal-3", "T1 sequence (P17931 2-250 limits assumed)": "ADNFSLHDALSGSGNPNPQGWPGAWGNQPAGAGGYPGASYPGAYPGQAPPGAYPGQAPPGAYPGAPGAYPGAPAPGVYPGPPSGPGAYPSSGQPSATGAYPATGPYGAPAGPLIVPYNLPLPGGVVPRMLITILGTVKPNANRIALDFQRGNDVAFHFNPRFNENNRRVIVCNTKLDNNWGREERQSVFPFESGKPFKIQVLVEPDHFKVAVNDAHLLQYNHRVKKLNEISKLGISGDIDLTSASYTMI", "assay": "ELISA on human Gal-3 (huGal3), one OD450 value per clone", "values": [
      {"binder": "B1", "OD450": 0.523},
      {"binder": "B2", "OD450": 1.4},
      {"binder": "B3", "OD450": 2.56},
      {"binder": "B4", "OD450": 0.502},
      {"binder": "B5", "OD450": 0.86}
    ]},
    {"target": "T2, mouse Gal-3 (mouse, UniProt P16110 2-264, limits assumed)", "T2 construct": "also called mouse Galectin-3; Lgal3", "T2 sequence (P16110 2-264 limits assumed)": "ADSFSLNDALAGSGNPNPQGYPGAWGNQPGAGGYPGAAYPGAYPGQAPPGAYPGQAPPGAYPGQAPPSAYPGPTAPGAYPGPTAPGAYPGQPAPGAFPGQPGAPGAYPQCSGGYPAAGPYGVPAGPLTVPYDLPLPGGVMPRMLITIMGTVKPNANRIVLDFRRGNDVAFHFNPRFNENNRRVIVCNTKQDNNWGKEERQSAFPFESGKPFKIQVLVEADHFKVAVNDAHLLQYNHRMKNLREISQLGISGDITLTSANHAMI", "assay": "ELISA on mouse Gal-3 (moGal3), one OD450 value per clone", "values": [
      {"binder": "B1", "OD450": 0.047},
      {"binder": "B2", "OD450": 0.049},
      {"binder": "B3", "OD450": 1.38},
      {"binder": "B4", "OD450": 0.726},
      {"binder": "B5", "OD450": 1.12}
    ]},
    {"target": "T2, mouse Gal-3", "assay": "ELISA on mouse Gal-3 (moGal3)", "values": [
      {"binder": "B1", "binding result": "no binding"},
      {"binder": "B2", "binding result": "no binding"}
    ]},
    {"target": "T1, human Galectin-3 (LGALS3)", "assay": "SPR, increasing concentrations of the mAb", "from_the_text": "Clones 46H02 and 20F08 were then subjected to determination of binding parameters using surface plasmon resonance (SPR) in the presence of increasing concentrations of these antibodies.", "units": {"Kd": "nM"}, "values": [
      {"binder": "B1", "Kd": 44},
      {"binder": "B3", "Kd": 10}
    ]},
    {"target": "T3, PE labeled Gal-3 (Gal-3-PE) (human, UniProt P17931 1-250, limits assumed, labelled with PE (phycoerythrin; Innova Biosciences kit), sites not stated)", "T3 construct": "Bought human Gal-3 labelled with PE; also called huGal-3 (Abcam ab89487) labelled with PE", "T3 sequence (P17931 whole entry)": "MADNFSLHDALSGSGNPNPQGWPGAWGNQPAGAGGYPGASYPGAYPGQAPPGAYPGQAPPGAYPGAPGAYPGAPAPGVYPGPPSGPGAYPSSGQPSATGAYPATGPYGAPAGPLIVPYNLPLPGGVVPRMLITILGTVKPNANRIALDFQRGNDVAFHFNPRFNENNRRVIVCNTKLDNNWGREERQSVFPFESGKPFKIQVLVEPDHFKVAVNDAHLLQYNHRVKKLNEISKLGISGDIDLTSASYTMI", "assay": "blockade of Gal-3-PE binding to OVCAR3 cells by purified antibody, number of Gal-3-PE-bound cells (Mirrorball)", "from_the_text": "Reactions to measure binding of Gal-3-PE to OVCAR3 cells were set up in the presence of PBS (negative control), or increasing concentrations of the indicated antibody. Purified antibodies were used in the binding reactions. Shown are the effects of antibody concentration on the extent of inhibition of Gal-3-PE binding to OVCAR3 by antibody clones 20F08 and 12H07 (FIG. 6A), which have the identical sequences, 46H02 (FIG. 6B), clones 38E05 and 39F02 (FIG. 6C), which also have identical sequences, and 14D11.2D3 (FIG. 6D).\nAn assay for Gal-3-PE binding to cancer cells was developed as a secondary screen. huGal-3 (Abcam ab89487) was labelled with PE (Innova Biosciences) according to manufacturer's instructions. The assay for Gal-3-PE binding to OVCAR3 cells was performed as follows: cultured […] cells were trypsinized and washed with culture medium. 500, 1000 or 2000 cells were incubated with various concentrations of Gal-3-PE. The indicated number of OVCAR3 cells were pipetted into a 96-well plate with the indicated amount of Gal-3-PE and incubated on the bench in the dark for 2 hrs prior to being read on a Mirrorball® device (TTP Labtech). Binding of Gal-3-PE to OVCAR3 cells was detected using the Mirrorball® flow cytometer.\nNext, the clones were subjected to determination of dose-response of blockade of Gal-3-PE binding to OVCAR3 cells. […]", "units": {"IC50 (read off the curve)": "µg/mL"}, "values": [
      {"binder": "B3", "IC50 (read off the curve)": "~1"}
    ]}
  ]
}
